Source: IntAct's records for PubMed 22596162

B1: E3 ubiquitin-protein ligase RLIM (Mus musculus), Q9WTV7 (parent)
chain: MENSDSNDKGSDQSAAQRRSQMDRLDREEAFYQFVNNLSEEDYRLMRDNNLLGTPGESTEEELLRRLQQIKEGPPPQSPDENRAGESSDDVTNSDSIIDWLNSVRQTGNTTRSGQRGNQSWRAVSRTNPNSGDFRFSLEINVNRNNGSQTSENESEPSTRRLSVENMESSSQRQMENSASESASARPSRAERNSAEAVTEVPTTRAQRRARSRSPEHRRTRARAERSRSPLQPTSEIPRRAPTLEQSSENEPEGSSRTRHHVTLRQQISGPELLGRGLFAASGSRNPSQGTSSSDTGSNSESSGSGQRPPTIVLDLQVRRVRPGEYRQRDSIASRTRSRSQAPNNTVTYESERGGFRRTFSRSERAGVRTYVSTIRIPIRRILNTGLSETTSVAIQTMLRQIMTGFGELSYFMYSDSDSEPSASVSSRNVERVESRNGRGSSGGGNSSGSSSSSSPSPSSSGESSESSSEMFEGSSEGGSSGPSRRDGRHRAPVTFDESGSLPFLSLAQFFLLNEDDEDQPRGLTKEQIDNLAMRSFGENDALKTCSVCITEYTEGNKLRKLPCSHEYHVHCIDRWLSENSTCPICRRAVLSSGNRESVV

Variants of: B1
Details: with zfp42_mouse Zfp42, P22227
Chain of zfp42_mouse Zfp42, P22227 (P22227 whole entry): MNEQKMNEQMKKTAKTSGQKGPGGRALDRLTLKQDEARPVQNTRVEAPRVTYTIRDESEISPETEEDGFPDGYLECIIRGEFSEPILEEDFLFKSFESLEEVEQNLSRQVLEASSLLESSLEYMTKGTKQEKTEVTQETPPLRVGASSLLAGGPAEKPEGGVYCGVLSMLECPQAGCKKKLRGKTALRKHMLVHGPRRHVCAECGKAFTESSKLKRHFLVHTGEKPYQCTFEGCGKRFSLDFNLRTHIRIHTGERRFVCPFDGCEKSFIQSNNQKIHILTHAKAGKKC

Variant	effect of a mutation on the interaction
H569A;C572A	with no effect
